{"source": "the nanobody polyreactivity screen of Harvey et al. (2022)", "data": [{"test": "yeast display, Sf9 membrane polyspecificity reagent, FACS + sequencing; frameworks hold sequencing errors", "how_it_was_run": "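A nanobody's polyreactivity label depends on the gate it was sorted from. Yeast display cells were stained with 10% biotinylated, detergent-solubilized Sf9 membrane reagent for 1 hour at 4 °C, enriched on streptavidin microbeads and sorted by FACS. The low and high (top ~1%) gates were set on anti-HA fluorescence for expression and streptavidin fluorescence for reagent binding.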", "values": [{"sequence": "QVQLVESGGGLVQAGGSLRLSCAASGFTFEWNTMGWYRPAPGKERELVARINWSSGRTYYADSVKGRFTISRDNAKNTVYLQMNSLKPEDTAVYYCAADTYDWRTGYKDDYWGQGTQVTVSS", "polyreactivity (PSR sort gate)": "high polyreactivity"}, {"sequence": "QVQLVESGGGLVQAGGSLRLSCAASGSTFRENDMGWYRQAPGKERELVAALTFSGGSTYADSVKGRFTISRDNAKNTVYLQMNSLKPEDTAVYYCSADTLPAEFDYDYWGQGTQVTVSS", "polyreactivity (PSR sort gate)": "low polyreactivity"}, {"sequence": "QVQLVESGGGLVQAGGRLRLSCAASGSTFVTNYMGRYRQAPGKERELVAAISSGTSTNYADSVKGRFTISRDNAKNTVYLQMNSLTREDTPVYYCAADSLKRYDYWGQGTQVTVSS", "polyreactivity (PSR sort gate)": "low polyreactivity"}, {"sequence": "QVQLVESGGGLVQAGGSLRLSCAASVLTFYEYAMGWYRQAPGKERELVASISGRAASTDYADSVKGRFTISRDNAKNTVYLQMNSLKPEDTAVYYCAVGVVGDIDTDGYWGQGTQVTVSS", "polyreactivity (PSR sort gate)": "low polyreactivity"}, {"sequence": "QVQLVESGGGLVQAGGSLRLSCAASGGTFTWYAMGWYRQAPGKERELVAAISSDGSTYYADSVKGRFTISRDNAKNTVYLQMNSLKPEDTAVYYSAAYSSWGGFDYWGQGTQVTVSS", "polyreactivity (PSR sort gate)": "low polyreactivity"}, {"sequence": "QVQLVESGGGLDQAGGSLRLSCAASGRTSKTYAMGWYRQAPGKERELVATIDRSGDGTYYADSVKGRFTISRDNAKNTVYLQMNSLKPEDTAVYYCNAVTSSFYNRDSDYWGQGTQVSVSS", "polyreactivity (PSR sort gate)": "high polyreactivity"}, {"sequence": "QVQLVESGGGLVQAGGSLRLSCAASGFIFRSYAMGWYRQAPGKERELVAAITHTGTTYYADSVKGRFTISRDNAKNSVYLQMNSLKPEDTAVYYCNANYYRTHYVYWGQGTQVTVSS", "polyreactivity (PSR sort gate)": "high polyreactivity"}, {"sequence": "QVQLVESGGGLVQAGGSLRLSCAASGSIFRRYAMGWYRPAPGKERELVAAITNRGGTTYYADSVKGRFTISRDNAKNTVYLQMNSLNPEDTAVYYCATALWVRYYGQGGYIRRYDYWGQGTQVTVSS", "polyreactivity (PSR sort gate)": "high polyreactivity"}, {"sequence": "QVQLVESGGGLVQAGGSLRLSCAASGRIIWSNTMGWYRQAPGKESELVAASSGRGGSTYYADSVKGRFTISRDNAKNTVYLQMNSLKPEDTAVYYCAAKPTRSRKIYEYWGQGTQVTVSS", "polyreactivity (PSR sort gate)": "low polyreactivity"}, {"sequence": "QVQLVESRGGLVQAGGSLRLSCAASGRTFAVYALGWYRQAPGKEWELVAAITLGASRTYYADSVKGRFTISRDNAKNTVYLQMNSLKPEDTAVYSCNAVGRRNVDSSLNDYWGQGTQVTVSS", "polyreactivity (PSR sort gate)": "low polyreactivity"}, {"sequence": "QVQLVESGGGLVQAGGSLRLSCAASGFTFSSYAMGWYRQAPGKERELVAAISTRGGSTYYADSVKGRFTISRDNAKNTVYLQMNSLKPEDTAVYYCATGGRGGRRYEYWGQGTQVTVSS", "polyreactivity (PSR sort gate)": "low polyreactivity"}, {"sequence": "QVQLVESGGGVVQAGGSLRLSCAASGFTFGLYAMGWYRQAPGKERELVAVISSSGGSTYYADSVKGRFTISRDNAKNTVYLQMNSLKPEDTAVYYCAAEWHDYKFDVTYDYWGQGTQVTVSS", "polyreactivity (PSR sort gate)": "low polyreactivity"}, {"sequence": "QVQLVESGGGLVQAGGSLRLSCAASGIIFRNNAMGWYRQAPGKEREFVARISKRGGSTYYADSVKGRFTISRDNAKNTVYLQMNSLKPEDTAVYYCAKGYGSGSYLYDYWGQGTQVTVSS", "polyreactivity (PSR sort gate)": "high polyreactivity"}, {"sequence": "QVQLVESGGGLVQAGGSLRLSCAASGRMFWSNAMGWYIQAPGKERELFAAIRNTGSTNYADSVKGRFTISRDNAKNTVYLQMNSLKPEDTAVYYCAAYKGSSKYDYWGQGTQVTVSS", "polyreactivity (PSR sort gate)": "high polyreactivity"}, {"sequence": "QVQLVESGGGLVQAGGSLRLSCAASGIIFGRYAMGWYRQAPGKERELVAAISARGGSTYYADSVKGRFTISRDNAKNTVYLHMNSLKPEDTAVYYCAARAVYTQKRYDSWGQGTQVTVSS", "polyreactivity (PSR sort gate)": "high polyreactivity"}, {"sequence": "QVQLVESGGGLVQAGGSLRLSCAASGLTFYGYVMGWYRQAPGKEWELVASISRSGGRTYYADSVKGRFTISRDNAKNTVFLQMNSLKPEDTAVYYCAKYLSRQSGDGEYDYWGQGTQVTVSS", "polyreactivity (PSR sort gate)": "low polyreactivity"}, {"sequence": "QVQLVESGGCLVQARGTLRLSCASSGRTIYLYAMPWYRQAPAKERELVAAITKSGGSTYYADSVKGRFTISRDIAMNTVYVQMNSLKPQDTAFYYCYKDLSSTNLDYWGQGTQFTVSS", "polyreactivity (PSR sort gate)": "low polyreactivity"}, {"sequence": "QVQLVESGGGLVQAGGSLRLSCAASGSIFYGYVMGCYTQAPGKERELVAAISGGGSTNYADSVKGRFTISRDNAKNTVYLQMNSLKPEDTAVYYCNTEDWAVGSPEVEYEYDYWGQGTQVTVSS", "polyreactivity (PSR sort gate)": "low polyreactivity"}, {"sequence": "QVQLVESGGGLVQAGGCLRLSCAASGSIFAPIAMGWYRQAPGKERDLVAAITSGVGSTDYADSVKGRFTISRDNAKNNVYLQMNSLKPEDTAVYYCAADSSYLTYWEYDYWGQGTQVTVSS", "polyreactivity (PSR sort gate)": "low polyreactivity"}, {"sequence": "QVQLLESGGGLVQAGGTLRLSCSASGGIFVNYAMGWYRQAPGKERELVAAISRSGGSTYYADSVKGRFTISRDNAKNTVYLQLNSLKPEVTAVYYCNAVLQKYRFEYDYWGQGSQVTVSS", "polyreactivity (PSR sort gate)": "high polyreactivity"}, {"sequence": "QVQLVESGGGLVQAGGSLRLSCAASGRIFGRNAMGWYRQAPGKERELVAAISSSGGTYYADSVKGRFTISRDNAKNTVYLQMNSLKPEDTAVYYCNARVRTQQRWVDYWGQGTQVTVSS", "polyreactivity (PSR sort gate)": "high polyreactivity"}, {"sequence": "QVQLVESGGGLVQAGGSLRLSCAASGRTFTGYAMGWYRQAPGKERELVASISRRGGSTYYADSVKGRFTISRDNAKNTVYLQMNSLKPEDTAVYSCAADSVRHTYSWWYAVDYWGQGTQVTVSS", "polyreactivity (PSR sort gate)": "high polyreactivity"}, {"sequence": "QVQLVESGGGLVQAGGSLRLSCAASGSTFAANAMGWYRQAPGKERELVAAITSSGGSTYYADSVKGRFTISRDNAKNTVYLQMNSLKPEDTAVYYRNKDIERYVRIYDSWGQGTQVTVSS", "polyreactivity (PSR sort gate)": "low polyreactivity"}, {"sequence": "QVQLVESGRGLVQAGGSLRLSCAASGGSIPYYAMGWYRQAPGKERELVAAINYSGGSTYYADSVKGRFTISRDNAKNSVYLQMNSLKPEDTAVDYCAARHRYHRGYGYWGQGTQVTLSS", "polyreactivity (PSR sort gate)": "high polyreactivity"}, {"sequence": "QVQLVESGGGLVQAGGSLRLSCAASGSTFIGHAMGWYRQAPGIERELVATITSGDSTYADSVKGRFTISRDNAKNTVYLQMNSLKPEDTAVYYCNADPWDIGSSFELDYWGQGTQLTVSS", "polyreactivity (PSR sort gate)": "low polyreactivity"}, {"sequence": "QVQLVESGGGLVQAGGSLRLSCVASGRIFLTYAMGWYRQAPGKERELVAAISYSGASTYYADSVKGRFTISRDNAKNTVYLQMNSLKPEDTAVYYCATERVGTPRMNYWGQGTQVTLSS", "polyreactivity (PSR sort gate)": "high polyreactivity"}, {"sequence": "QVQLVESGGGLVQAGGSLRLSCAASGRTLRTYTMGWYRQAPGKERELVAAISSSDDSTYYADSVKGRFTISRDNAKNTVYLQMNSLKPEDTAVYYCAKDGLYPTEYGYWGQGTQVTVSS", "polyreactivity (PSR sort gate)": "high polyreactivity"}, {"sequence": "QVQLVESAGGLVQAGGSLRLSCAASGRIFHKNAMGWYRQAPGKERELVATINYGGSSTYYADSVKGRFTISRDNAKNTVYLQMNSLKPEDTAVYYCAAAPEYLTDHAYWGQGTQVTVSS", "polyreactivity (PSR sort gate)": "low polyreactivity"}, {"sequence": "QVQLVESGGGLVQAGGSLRLSCAASGSIFYVYAMGWYRQAPGKERELVAAITNYADSVKGRFTISRDNAKNTVYLQMNSLKPEDTAVYYCAADWWRVEMDYWGQVTQVTVSS", "polyreactivity (PSR sort gate)": "low polyreactivity"}, {"sequence": "QVQLVESGGGLVQAGGSLRLSCAASGRTFRRNAMGWYRQAPGKERELVAAISWRGVSTYYADSVKGRFTISRDNAKNTVYLQMNSLKPEDNALYYCAVDFPYTRRDYWGQGPQVTVSS", "polyreactivity (PSR sort gate)": "high polyreactivity"}, {"sequence": "QVQLVESGGGLVQAGGSLRLSCAASGSTLYYYAMGWYRQAPGTERELGAAITWSGDSTYYADSVKGRFTISRDNAKNTVYLQMNSLKPEDTAVYYCAAEVESYDPYYTYDYWGQGTQVTVSS", "polyreactivity (PSR sort gate)": "high polyreactivity"}, {"sequence": "QVQLVESGGGLVQAGGSLRLICAASGNTFKDYTMVWYIQAPRKERDLVASINSGGSTNYADSVKGRFTISRDNAKNTVYLQMNSLKPEDTAVYYCAKRAWSDYNPIDYWGQGTQVSVSS", "polyreactivity (PSR sort gate)": "low polyreactivity"}, {"sequence": "QVQLVESWGGLVQAGGSLRLSCAASGLILFAYTMGWYRQAPGKERELVAGIDGSGGTTYYADSVKGRFTISRDNAKNTVYLQMNSLNPEDTAVYYCAASGFRWQGVKRMDYWGQGTQVTVSS", "polyreactivity (PSR sort gate)": "low polyreactivity"}, {"sequence": "QVKLVVSGGGLVQAGGSLRLTCAASGRTFRRNAMGWYRQAPGKERELVAAISTSGGRTYYADSVKGRFTISRDNAKNTVYLQMNSLKAEDTAVYYCAADIPQTEGYWGQGTQVTVSS", "polyreactivity (PSR sort gate)": "low polyreactivity"}, {"sequence": "QVQLVESGGGLVQAGGSLRLSCAASGFIIDSNAMGWYRQAPGKERELVAAIDYSGGSTYYADSVKGRFTISRDNAKNTVYLQMNSLKPEDTAFYYCAAEYHGYRYNYYPYSHYFIYEYWGQGTQVTVSS", "polyreactivity (PSR sort gate)": "high polyreactivity"}, {"sequence": "HVQLEESGGGLVQAGGSLRLSCAASGFTFNRYAMGWYRQAPGKERELVAAISSGGRTYYADSVKGRFTISRDNAKNTVYLQMNRLKPDDTAVYYCAADWSLYSHEFDYWGQGTQVTVSS", "polyreactivity (PSR sort gate)": "high polyreactivity"}, {"sequence": "QVQLVESGGGLVQAGGSLRLSCAASGSTFRYNAMGWYRQAPGKERELVAAITSGGTTNYADSVKGRFTISRDNAKNTVYLQMNSLKPEDTAVYYCNAYVAYWGWVYRVDYWGQGTQVTVSS", "polyreactivity (PSR sort gate)": "low polyreactivity"}, {"sequence": "QVQLVESGGGLVQAGGSLRLSCAASGRTFRRYAMGWYRQAPGKEREFVAAIRYSGGITYYADSVKGRFTISRDNAKNTVYLQMNSLKPEDTAVFYCAAYGWGNRWYSRFDYWGQGTQVTVSS", "polyreactivity (PSR sort gate)": "high polyreactivity"}, {"sequence": "QVQLVESGGGLVQAGGSLRLSCAASGFIFRRNAMGWYRQAPGKERELVATISSGVGTYYADSVKGRFTISRDNAKNTVYLQMNSLKPEDTAVYYCATLVHYLYTGYRAYYSYRLDYWGQGTQVTVSS", "polyreactivity (PSR sort gate)": "high polyreactivity"}, {"sequence": "QVQLVESGGGLDQAGGSLRLSCAASGSTFYLYAMGWYRQAPGKERELVAAISSGGRTNYADSVKGRFTISRDNAKNTVYLQMNSLKPEDTAVYYCAARIQWPTWSLYYYWGQGTQVTVSS", "polyreactivity (PSR sort gate)": "high polyreactivity"}, {"sequence": "QVQLVESGGGLVQAGGSLRLSCAASGFIFRVYTMGWYRQAPGKERELVAAISYRGGRTYYADSVKGRFTISRDNAKNTVYLQMNSQKPEDTAVYYCAADRVNREFDYWGQGTQVTVSS", "polyreactivity (PSR sort gate)": "high polyreactivity"}, {"sequence": "QVQLQESGGGLVQAGGSLRLSCAASGYISHADEMGWYRQAPGKEHELVASISNGGSTNYADSVKGRFTISRDNAKNTVYLQMNSLKSEDTAVYYCAAWTGQVDIHYYWGQGTQETVSS", "polyreactivity (PSR sort gate)": "low polyreactivity"}, {"sequence": "QVQLVESAGGLVQAGGSLRLICAASGGTFSTYAIGWYRQAPGKEREFVAAITRSGTSTYYADSVKGRFTISRDNAKNTVYLQMNGLNPEDTAVYYCAAGVYSFRYDYWGQGTQVTVSS", "polyreactivity (PSR sort gate)": "low polyreactivity"}]}]}
